Laboratory results: patent US20110183896A1 (published 2011)

Experiments:
[1] = molecular target: Cry3Aa toxin of Bacillus thuringiensis tenebrionis, chymotrypsin-treated (Bacillus thuringiensis subsp. …, UniProt P0A379 159-644); assay: ELISA
[2] = molecular target: Cry3Bb toxin of Bacillus thuringiensis, recombinant from E. coli, chymotrypsin-treated (Bacillus thuringiensis, UniProt Q06117 160-652); assay: ELISA saturation binding
Sequence of Cry3Bb toxin of Bacillus thuringiensis, recombinant from E. coli, chymotrypsin-treated (Q06117 160-652): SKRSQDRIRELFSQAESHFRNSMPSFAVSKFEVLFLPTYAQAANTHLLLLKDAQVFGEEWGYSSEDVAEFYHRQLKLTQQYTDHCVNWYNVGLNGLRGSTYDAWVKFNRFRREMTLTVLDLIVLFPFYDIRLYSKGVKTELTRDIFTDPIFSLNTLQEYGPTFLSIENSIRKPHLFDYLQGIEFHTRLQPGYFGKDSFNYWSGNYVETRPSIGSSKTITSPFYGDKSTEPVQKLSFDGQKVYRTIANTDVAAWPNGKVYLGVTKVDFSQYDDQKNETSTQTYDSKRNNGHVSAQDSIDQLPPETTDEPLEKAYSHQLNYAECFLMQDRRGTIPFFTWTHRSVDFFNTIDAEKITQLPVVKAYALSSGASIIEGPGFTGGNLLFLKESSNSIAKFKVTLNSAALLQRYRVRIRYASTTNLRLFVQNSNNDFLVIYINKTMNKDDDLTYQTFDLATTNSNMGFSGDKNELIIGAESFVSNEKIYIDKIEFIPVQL

Sequence of Cry3Aa toxin of Bacillus thuringiensis tenebrionis, chymotrypsin-treated (P0A379 159-644): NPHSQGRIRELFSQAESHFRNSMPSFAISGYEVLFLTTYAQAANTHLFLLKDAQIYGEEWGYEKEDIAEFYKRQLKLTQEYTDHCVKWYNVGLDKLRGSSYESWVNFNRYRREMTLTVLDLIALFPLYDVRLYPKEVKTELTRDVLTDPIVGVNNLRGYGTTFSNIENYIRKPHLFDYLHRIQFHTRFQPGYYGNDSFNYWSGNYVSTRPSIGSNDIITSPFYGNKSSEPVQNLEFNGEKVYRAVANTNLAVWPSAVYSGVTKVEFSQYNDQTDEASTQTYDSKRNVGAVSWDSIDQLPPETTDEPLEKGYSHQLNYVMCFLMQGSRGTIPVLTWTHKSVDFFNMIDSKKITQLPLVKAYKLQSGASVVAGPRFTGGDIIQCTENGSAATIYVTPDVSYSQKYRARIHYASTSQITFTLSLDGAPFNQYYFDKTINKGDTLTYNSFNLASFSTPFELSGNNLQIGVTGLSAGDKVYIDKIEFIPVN

B1: Dv-CR8-10 peptide (cadherin repeats 8-10 of the Diabrotica virgifera virgifera cadherin-like protein), biotinylated (peptide)
chain: MAVLMTKDLQCSENLNKDGEVGEGIIGEDIDDGDNAKIDFSVLSIVDKETKNDIQESFNISKIDSDYVLNDTLKKVHLIAFEDLKGKYGTYEVTLHMHDEGDPMQTTDPDPTLTLTIEKWNYQTPSIIFPENDQTYIVLSDQQPGQPLALFNNTGTSNTLPDFSATDGETKDYSKWDVKFSYTQTNYEDDKIFVIDHIQPCVSQLQVSKHFNSDLVRSKKYKLTITASVKDGAEQEGEAGYSTSANISIVFLNNDAQPIFQNSDWSVSFVEFNTTQPAKPLEEQAEYENTKGGLPIYYHFYSENQTLSKYFEVDETSGDLSVIGNLTYDYDQDISFHIVASNDSQVRMLDPRSSLNVTVNFLPRNRRAPQWHHHHHH
modifications: biotinylated (sites not given)
Kd [1]: 18.8 nM
Kd [2]: 1.4 nM
